Legend:
[1] = test system: long-term repopulating HSC; assay: Secondary bone marrow transplantation of IL-12 rescued marrow; type: in vivo, mice (Ly5.2 donor, Ly5.1 recipient); settings: donor derived T/B and M/G cells detected
Text: FIG. 5D-F: Secondary bone marrow transplantation was employed to detect if IL-12 can protect long-term repopulating HSC. Six month after lethal dose radiation and IL-12 rescue, bone marrow cells from these mice (Ly 5.2) were isolated and transplanted to secondary lethally irradiated mice (Ly 5.1). Four months after transplantation, donor cells (Ly5.2) were examined in recipient's peripheral blood.
The following gives some further experimental details. Six months after the rescue from lethal dose radiation (IL-12 treated mice, C57BL/Ly5.2), whole bone marrow cells were isolated and 1×10^6 cells were transplanted to secondary lethally irradiated mice (C57BL/Ly5.1). 4 months after transplantation, blood cells were collected and stained with anti-Ly5.2 and anti-Mac-1/anti-Gr-lantibodies (5D), and anti-Ly5.2 and anti-CD3/anti-B220 antibodies (5E) and anti-Ly5.2 antibody (5F). […]
Ly5.2 strain mice rescued by IL-112 treatment before or after lethal irradiation were sacrificed after 6 months. […] 4 months after the transplantation, peripheral blood cells were analyzed for Ly5.2 cells (anti-Ly5.2 antibody conjugated with FITC) with T cell and B cell markers (anti-CD3 and anti-B220 antibody conjugated with PE) and with macrophage and granulocyte cell markers (anti-CD11b and anti-Gr1 antibody conjugated with PE) using FACS. […]

bone marrow cells = assay: Cell cycle analysis with propidium iodide staining; type: in vivo, mice; settings: 24 hours post IL-12 administration; control 10%, p<0.05
Description: It is believed that cells at S phase are more resistant to radiation. Both Brd-U incoperation and cell cycling analysis were performed to determine if IL-12 can stimulate bone marrow cell proliferation. In IL-12 treated mice, there are more bone marrow cells in S phase compared with control animals (12% vs 10%, p<0.05). Furthermore, there are more BrdU positive cells in IL-12 treated bone marrow compared with control animals (17% vs 8%, p<0.05).
24 hours post IL-12 administration (10 ng/mouse), bone marrow cells were isolated for BrdU incooperation assay (FIG. 7A).
For the cell cycling assay, IL-12 (100 ng/mouse) or PBS was intravenously injected into mice. 24 hours after injection, whole bone marrow cells were flushed from femurs and treated with lysis buffer to destroy red blood cells. After washing in PBS and fixing in −20° C. pure ethanol for at least 1 hour, about 5×10^5 bone marrow cells were treated with RNase A (20 ng/ul final concentration) at 37° C. for 30 minutes, then stained with propidium iodide (100 ng/ul final concentration) from Sigma (St Louis, Mo.) at room temperature for 15 to 30 minutes and then processed directly for cell cycling analysis using fluorescence activated cell sorting (FACS).

peripheral blood cells [2] = assay: Peripheral blood cell counts after lethal or sublethal irradiation; type: in vivo, mice (C57BL/6J)
Text: After lethal dose radiation (10 Gy), the full blood cell count dropped to lowest point for both IL-12 treated and non-treated mice. However, 11-12 treated mice start to recover at day 14 post radiation while the control animals died out. It is noteworthy that the recovery is multi-lineage, including white blood cell, red blood cell and platelets.
Here too, the recovery is broad range and encompasses all blood lineages and blood cell types. […] This effect is somewhat better when IL-12 was administrated 24 hours before radiation than IL-12 administrated after radiation.
For peripheral blood cell counts, 6-8 week old female C57BL/6J mice received an i.v. injection of IL-12 before or after lethal (1000 rad) or sub-lethal (500 rad) irradiation. 10 ul blood was taken from the tail to do blood cell count analyses in a MASCOT Multispecies Hematology Systems (CDC Technologies, Oxford, Conn.) at different days after irradiation. Each group had at least 3 mice.

[3] = test system: short-term hematopoietic stem cells (ST-HSCs); assay: Colony forming units spleen day 12 assay (CFU-S12); type: in vivo, mice
Description: To determine the bone marrow cell subsets that are protected by IL-12 administration for the rescue phenomena, CFC and CFU-S12 assay were performed at different time post lethal dose radiation. Bone marrow cells were recovered from IL-12 treated or control animals immediately (day 0), or at day 7, 9, 10, 12, 14 and 21 post radiation for CFC and CFU-S12 assay. If progenitor cells are protected from IL-12 treatment (IL-12 was administered in this study at 24 hours before radiation), CFC and CFU-S12 colonies should be detected when cells were removed at day 0. However, bone marrow cells isolated at day 0, 7 post radiation give rise no CFC nor CFU-S12 colonies in both IL-12 treated and control animals. At day 10 post radiation, the bone marrow cells isolated from IL-12 treated mice start to give rise of CFU-S12 but no detectable CFC, which start to appear from IL-112 treated bone marrow isolated 12 days post radiation and fully recovered from bone marrow cells isolated 14 days post radiation, as shown in FIGS. 5A and 5B. […] The CFU-S12 colony forming cells and CFC cells at day 10 and day 14 post radiation may be derived from long-term repopulating stem cells rescued by IL-12 treatment. […]
For the CFU-spleen12 assay, 2×10^5 bone marrow cells as donors were transplanted into recipient mice which received lethal irradiation. […] Spleen colonies were counted.

peripheral blood cells [4] = assay: Blood cell recovery after chemotherapeutic drug Cytoxan; type: in vivo, mice; settings: Cytoxan 300 mg/kg, IL-12 36 hrs before or 12 hrs after, n=5
Description: FIG. 9A: white blood cell; FIG. 9B: red blood cell; FIG. 9C: platelet; FIG. 9D: lymphocyte; FIG. 9E: monocyte; FIG. 9F: neutrophile. Cytoxan is name for cyclophosphamide.
A study was conducted to determine whether IL-12 administration promotes multi-lineage blood cell recovery when used in conjunction with a chemotherapeutic drug. In this example, use of IL-12 is as an adjuvant or ancillary therapy to the primary therapy of chemotherapy. IL-12 was administrated at different time (36 hrs before or 12 hrs after chemotherapy). Mice in this study received a relatively high dose of chemotherapeutic drug Cytoxan (e.g., 300 mg/kg). At different time post-cytoxan treatment, peripheral blood was collected via tail vein for blood cell count study. (Mascot). FIG. 9A white blood cell count; B: red blood cell count; C: platelet count.

B1: IL-12: Recombinant murine interleukin 12, heterodimeric cytokine (p35+p40), purchased from R&D Systems or PeproTech (protein, UniProt P43431 23-215; P43432 23-335, looked up)
Interleukin-12 subunit alpha: RVIPVSGPARCLSQSRNLLKTTDDMVKTAREKLKHYSCTAEDIDHEDITRDQTSTLKTCLPLELHKNESCLATRETSSTTRGSCLPPQKTSLMMTLCLGSIYEDLKMYQTEFQAINAALQNHNHQQIILDKGMLVAIDELMQSLNHNGETLRQKPPVGEADPYRVKMKLCILLHAFSTRVVTINRVMGYLSSA
Interleukin-12 subunit beta: MWELEKDVYVVEVDWTPDAPGETVNLTCDTPEEDDITWTSDQRHGVIGSGKTLTITVKEFLDAGQYTCHKGGETLSHSHLLLHKKENGIWSTEILKNFKNKTFLKCEAPNYSGRFTCSWLVQRNMDLKFNIKSSSSSPDSRAVTCGMASLSAEKVTLDQRDYEKYSVSCQEDVTCPTAEETLPIELALEARQQNKYENYSTSFFIRDIIKPDPPKNLQMKPLKNSQVEVSWEYPDSWSTPHSYFSLKFFVRIQRKKEKMKETEEGCNQKGAFLVEKTSTEVQCKGGNVCVQAQDRYYNSSCSKWACVPCRVRS
- protection of long-term repopulating cells [1]: protects long-term repopulating cells
- bone marrow cells in S phase (bone marrow cells): 12%
- time to reach normal blood cell count (peripheral blood cells [2]; lethal dose radiation (10 Gy)): about 30 days post radiation
- day at which blood cell counts start to recover (peripheral blood cells [2]; lethal dose radiation (10 Gy), 100 ng/mouse): ≤ 14 day post radiation
- day at which blood cell counts start to recover (peripheral blood cells [2]; lethal dose radiation (10 Gy), 100 ng/mouse, listed as 11-12): 14 day post radiation
- blood cell count recovery versus control (peripheral blood cells [2]; sublethal radiation (500 rad), 100 ng/mouse): accelerates the blood cell count recovery
- red blood cell, platelet, white blood cell and monocyte versus control (peripheral blood cells [2]; sublethal radiation (500 rad), day 5 and 8 post radiation, p<0.05): statistically higher
- CFU-S12 activity ([3]; cells isolated the first 7 days post lethal radiation): did not give rise of CFU-S12
- time of full recovered CFU-S12 activity ([3]; lethal radiation, IL-12 24 hours before radiation): 10 days post radiation
- blood cell recovery versus control (peripheral blood cells [4]): better blood cell recovery

From patent publication US10029000B2, “Uses of IL-12 in hematopoiesis” (University of Southern California, priority 2003, dated 2018)
